Data reported in patent US12006361 (SONNET BIOTHERAPEUTICS, dated 2024).

Legend:
Test in all cases: biopanning and SPR screening
[1] = target: T1, human TGFβ2 (human, UniProt P61812 303-414)
T1 construct: also called hTGFβ2
T1 sequence (looked up): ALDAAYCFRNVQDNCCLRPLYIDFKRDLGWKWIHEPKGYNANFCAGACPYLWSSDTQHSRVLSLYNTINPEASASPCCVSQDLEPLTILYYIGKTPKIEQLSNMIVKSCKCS

[2] = target: T2, human TGFβ3 (human, UniProt P10600 301-412)
T2 construct: also called hTGFβ3
T2 sequence (looked up): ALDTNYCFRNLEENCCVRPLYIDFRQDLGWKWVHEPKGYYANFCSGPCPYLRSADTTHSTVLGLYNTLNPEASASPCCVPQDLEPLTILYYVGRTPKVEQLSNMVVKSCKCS

[3] = target: T3, mouse TGFβ1 (mouse, UniProt P04202 279-390)
T3 construct: also called mTGFβ1; mTGFβ-1
T3 sequence (P04202 279-390 limits assumed): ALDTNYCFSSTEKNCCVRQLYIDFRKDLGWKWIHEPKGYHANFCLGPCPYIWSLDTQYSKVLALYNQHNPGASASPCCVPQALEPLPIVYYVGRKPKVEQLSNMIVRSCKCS

[4] = target: T4, human TGFβ1 (human, UniProt P01137 279-390)
T4 construct: also called hTGFβ1; hTGFβ-1
T4 sequence (P01137 279-390 limits assumed): as the sequence (P04202 279-390 limits assumed) above, with S75A counted along it

binding result [1]: binds | binding result [2]: binds | binding result [3]: binds | binding result [4]: binds
B1: 4H7 (scFv)
scFv: QVQLVESGGGLVKPGRSLRLSCAASGFTFSSYAMHWVRQAPGKGLEWVAVISYDGSNKYYADSVKGRFTISRDNSKNTLYLQMNSLRAEDTAVYYCAKEMRYCSGGSCYPYAYYMDVWGQGTTVTVSSASTGGGGSGGGGSGGGGSVHSSSELTQDPAVSVALGQTVRITCQGDSLRSYYASWYQQKPGQAPVLVIYGKNNRPSGIPDRFSGSSSGNTASLTITGAQAEDEADYYCNSRDSSGNLVVFGGGTKLTVLGLGG
notes: also called anti-TGFβ-1 scFv 4H7
